In article PMC9545174, “Discovery and characterization of SARS-CoV-2 reactive and neutralizing antibodies from humanized CAMouse^HG mice through rapid hybridoma screening and high-throughput single-cell V(D)J sequencing” (Frontiers in Immunology, 2022):
Substitutions are numbered along the chain they refer to.

B1: 18-4A (antibody, V domains shown)
VH: QVQLQQSGPGLVKPSQTLSLTCAISGDSVSNNSAAWNWIRQSPSRGLEWLGRTYYRSKWYNDYAVSVSSRITINPDTSKNQFSLQLNSVTPEDTAVYYCAREGALLWFGEGAFDYWGQGTLVTVSS
VL: EIVLTQSPGTLSLSPGERATLSCRASHIVSSSYLAWYQQKPGQAPRFLIYGASSRATGIPDRFSGSGSGTDFTLTISRLEPEDFAVYYCQQYAGSPFTFGPGTKVDIK
B2: 11-2G (antibody, V domains shown)
VH: QVQLQQAGPGLVKPSQTLSLTCAISGDSVSNNSAIWNWIRQSPSRGLEWLGRTYYRSKWYNDYAVSVSSRITINPDTSKNQFSLQLNSVTPEDTAVYYCARVDILTGYSFDYWGQGTLVTVSS
VL: EIVLTQSPGTLSLSPGERATLSCRASQSVSSSFLAWYQQKPGQAPRFLIYGESYRATGIPDRFSGSGSGTDFTLTISRLEPEDFAVYYCQQYGSSLTFGGGTKVEIK
B3: 4-2D (antibody, V domains shown)
VH: QVQLQQSGPGLVKPSQTLSLTCAISGDSVSNNSAAWNWIRQSPSRGLEWLGRTYYRSKWYNDYAVSVSSRITINPDTSKNQFSLQLNSVTPEDTAVYYCARGLWIPYYYGMDVWGQGTTVTVS
VL: B2 VL with S31N, S32I, Y54S, G100P, E105D
B4: 15-11F (antibody, V domains shown)
VH: QVQLQQSGPGLVKPSQTLSLTCAISGDSVSNNSAAWNWIRQSPSRGLEWLGRTYYRSKWYNDYAVSVSSRITINPDTSKNQFSLQLNSVTPEDTAVYYCARFSRLLGYGMDVWGQGTTVTVS
VL: B2 VL with S30I, F33Y, A35S, E52A, S53A, Y54S
B5: 4-1B (antibody, V domains shown)
VH: QVQLQQSGPGLVKPSQTLSLTCAISGDSVSNNSAAWNWIRQSPSRGLEWLGRTYYRSKWYNDYAVSVSSRITINPDTSKNQFSLQLNSVTPEDTAVYYCARGVYGSGPHAFDIWGQGTMVTVSS
VL: B2 VL with G51V, E52T, Y54N

Experiments:
[1] = molecular target: T1, wildtype SARS-CoV-2 RBD Protein (Severe acute respiratory syndrome …, UniProt P0DTC2); assay: SPR; conditions: both partners purified
[2] = molecular target: T1, wildtype SARS-CoV-2 RBD Protein; assay: BLI; conditions: both partners purified

| Binder | Kd [1] | binding result [2] |
| --- | --- | --- |
| B1 | 0.234 nM |  |
| B2 | 0.451 nM |  |
| B3 |  | binds |
| B4 |  | binds |
| B5 |  | binds |
